The results in this text go back to PMC3936014 (Nature communications, 2014).

Where two headings read alike, the source gives them in different places.

The series “crystal structure” deals with the molecule itself. As to the kind of experiment: crystal structure.
The target of series [1] is T1, TFAM (43-237) (Homo sapiens, UniProt Q00059 43-237).
T1 sequence: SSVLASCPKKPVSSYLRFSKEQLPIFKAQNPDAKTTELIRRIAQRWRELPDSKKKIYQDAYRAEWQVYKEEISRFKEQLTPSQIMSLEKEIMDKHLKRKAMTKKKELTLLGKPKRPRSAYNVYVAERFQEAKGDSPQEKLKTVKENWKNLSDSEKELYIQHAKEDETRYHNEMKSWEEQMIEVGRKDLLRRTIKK
The series is described as follows: X-ray crystallography.

The target of series [2] is T1, TFAM (43-237). The series is described as follows: X-ray crystallography. The source holds these as a separate data set.
For another series, the target named is T2, TFAM (mature) (Homo sapiens, UniProt Q00059 43-246).
T2 sequence: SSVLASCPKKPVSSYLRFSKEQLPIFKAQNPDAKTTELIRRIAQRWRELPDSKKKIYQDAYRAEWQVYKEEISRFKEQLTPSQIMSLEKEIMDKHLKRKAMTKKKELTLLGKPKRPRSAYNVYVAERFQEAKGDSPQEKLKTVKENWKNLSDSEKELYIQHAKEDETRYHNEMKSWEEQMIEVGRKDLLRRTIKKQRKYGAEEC
As to the kind of experiment: FRET DNA bending.

Series [3] addresses T1, TFAM (43-237). As to the kind of experiment: X-ray crystallography. The source holds these as a separate data set.

B1: TFAM (transcription factor A, mitochondrial) lacking the last 9 residues (43-237) (domain or fragment, human, UniProt Q00059 43-237, looked up)
chain: SSVLASCPKKPVSSYLRFSKEQLPIFKAQNPDAKTTELIRRIAQRWRELPDSKKKIYQDAYRAEWQVYKEEISRFKEQLTPSQIMSLEKEIMDKHLKRKAMTKKKELTLLGKPKRPRSAYNVYVAERFQEAKGDSPQEKLKTVKENWKNLSDSEKELYIQHAKEDETRYHNEMKSWEEQMIEVGRKDLLRRTIKK
Regarding B1, the binding result in the series “crystal structure” was “binds”.

B2: HSP1-Br 22 bp (dsDNA)
DNA 1: GGTTGGTTCGGGGTATGGGGTT
DNA 2: AACCCCATACCCCGAACCAACC
modifications: 5-bromo-dU replacing T at strand 1 position 4 (mtDNA 550)
Turning to B2, the binding result with TFAM (43-237) [1] was “binds”.

B3: HSP1 22 bp (dsDNA)
DNA 1: GGTTGGTTCGGGGTATGGGGTT
DNA 2: AACCCCATACCCCGAACCAACC
On to B3, for which the binding result with TFAM (43-237) [2] is recorded as “binds”.

B4: LSP 28 bp FRET (dsDNA)
DNA 1: TGTTAGTTGGGGGGTGACTGTTAAAAGT
DNA 2: ACTTTTAACAGTCACCCCCCAACTAACA
For B4, in the series with TFAM (mature), the binding result was “binds”.

B5: HSP1 22 bp FRET (dsDNA)
DNA 1: GGTTGGTTCGGGGTATGGGGTT
DNA 2: AACCCCATACCCCGAACCAACC
As for B5, the binding result with TFAM (mature) is reported as “binds”.

B6: nonspecific 22 bp (ATPase6) (dsDNA)
DNA 1: ATTCAACCAATAGCCCTGGCCG
DNA 2: CGGCCAGGGCTATTGGTTGAAT
As to B6, the binding result in the series with TFAM (43-237) [3] is on record as “binds”.

B7: nonspecific 22 bp FRET (dsDNA)
DNA 1: ATTCAACCAATAGCCCTGGCCG
DNA 2: CGGCCAGGGCTATTGGTTGAAT
Consider B7, for which the binding result with TFAM (mature) is “binds”.
